Assay: yeast display, Sf9 membrane polyspecificity reagent, FACS + sequencing; frameworks hold sequencing errors
Method in brief: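 Using colony PCR, genes from sorted yeast display clones were amplified, then sequenced on MiSeq at 2 × 250 and filtered by CDR length. The clones had been stained with 10% biotinylated, detergent-solubilized Sf9 membrane reagent for 1 hour at 4 °C and sorted by FACS into low and high (top ~1%) gates on anti-HA and streptavidin fluorescence. Polyreactivity labels come from the gate of origin.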
In the case of “QVQLVESGGGLVQAGGSLRLSCAASGSTLVRYAMGWYRQAPGKEREFVAAISWTGGSTYYADSVKGRFTISRDYAKNTVYLQMNSLKPEDTAVYYCSAEYFRGPSYSYWGQGTQVTVSS”, the “polyreactivity (PSR sort gate)” value is reported as “high polyreactivity”.
With “QVQLVESGGGLVQEGGSLRLSCAASGIIFSRYAMGWYRPAPGKERELVAAITRSGGDTYYADSVKGRFTISRDNAKNTVYLQMNSLNPEDTAVYYCAAERTWYPWVATGYYWGQGTQVTVSS” the “polyreactivity (PSR sort gate)” value was “low polyreactivity”.
For “QVQLVESGGGLVQAGGSLRLSCAASGSIFLAYAMGWYRQAPGKERELVADISYSGGRTYYADSVMGRFTISRDNAKNTVYLQMNSLIPEDTAVYYCAADPWHDTDQHGNDYWGQGSQVTVSS”, the “polyreactivity (PSR sort gate)” value was “low polyreactivity”.
For “QVQLVESGGGLVQAVGSLRLSCAASGTISVANAMGWYRQAPGKERELVAVINTSGTRTYYADSVKGRFTISRDNAKNTVYLQMNSLKPEDTAVYYCAARLRGVQGYEYWGQGTQVTVSS”, the “polyreactivity (PSR sort gate)” value was “low polyreactivity”.
With “QVQLVESGGGLVQAGGSLRLSCAASGRTFPGYTMGWSRQAPGKERELVAAISYSGGSTYYADSVKGRFTISRDNAKNTVYLQMYSLKPEDTAVYYCAAAYDRQRRYSWVGERYYWGQGTQVTVSS” the “polyreactivity (PSR sort gate)” value was “high polyreactivity”.
In the case of “QVQLVESGGGLDQAGGSLRLSCAASGSTFPYYAMGWYRQAPGKERELVARISYRGGRTYYADSVKGRFTISRDNAKNTVYLQMNSLKAEDTAVYYCAADRWVYYHSTRYDYWGQGTQVTVSS”, the “polyreactivity (PSR sort gate)” value is reported as “high polyreactivity”.
For “QVQLVESGGGLDQAGGSLRLSCAASGRIFVPNAMGWYRQAPGKERELVAAINWGGGSTYYADSVKGRFTISRDNAKNTVYLQMNSLKPEDTAVYYCAADHPYTIGVLPNQQFDYWGQGPQVTVSS”, the “polyreactivity (PSR sort gate)” value was “low polyreactivity”.
For “QVQLVESGGGLVQAGGSLRLSCAASGFTFDENAMGWYRQAPGINYSGASTYYADSVMGRFTFSRDNAKNTVYLQMNSLKPEDTAVYYCAAEVVAQMNYWGQGTQVTVSS”, the “polyreactivity (PSR sort gate)” value was “low polyreactivity”.
For “QVQLVESGGGLVQAGGSLRLSCAASGSIFSSYAMGWDRQAPGKERELVAAISSGGGSTYYADSVKGRFTISRDNAKHTVYLQMNSLKPEDTAVYYCNAGKEALKTTYTYDYWGQGTQVTVSS”, the “polyreactivity (PSR sort gate)” value was “high polyreactivity”.
In the case of “QVQLVESGGGLVQAGGSLRLFCAASGITSSYYAMLWYRQAPGKERDLVADISQSGGSTYYADSVKGRFTISRDNAKNTVYLQMNSLKPEDTAVYYWAADTYWWSYLYDYWGQGTQVTVSS”, the “polyreactivity (PSR sort gate)” value is reported as “high polyreactivity”.
For “QVQLVESRGGLVQAGGSLRLSSAASGRTFRSYVMGWYTPAPGKERQLVAAITRSGGSTYYADSVKGRFTISRDNAKNTVYLQMNSLKPEDTAVYYCATDRWYYYPDYYPYGEYDYWGQGTQVTVSS”, the “polyreactivity (PSR sort gate)” value was “low polyreactivity”.
With “QVQLVESGGGLVQAGGSLRLSCAASGSIFAANAMGWYRQAPGKERELVAAITRGGRTYYADSVKGRFTISRDNAKNTVYLQMNSLKPEDTAVYYCAAYVFSKREYYRYDYWGQGTQVTVSS” the “polyreactivity (PSR sort gate)” value was “high polyreactivity”.
With “QVQLVESGGGLVQAGGSLRLSCAASGSISDSNAMGSYRQAPGKERELVAAIDDSGGSTYYADSVKGRFTISRDNAKNTVYLQMNSLKPEDTAVYYCAKTKTQYLTSEIRFVYWGQGTQVTVSS” the “polyreactivity (PSR sort gate)” value was “low polyreactivity”.
For “QVQLVESGGGLVQAGGSLRLSCAASGSIFPNGMGSYRQAPGKERELVATITSGGSTYYADSVKGRFTISRDNAKNTVYLQMNSLKPEETAVYYCADTVYGGYSGSGCNYWGKGTQVTVSS”, the “polyreactivity (PSR sort gate)” value was “low polyreactivity”.
With “QVQLVESGGGLVQAGGSLRLSCAASGSTFRRNAMGWYRQAPGKERELVAAITSTDSTYYADSVKGRFTISRDNAKNTVYLQMNSLKPEDTAVYYCAKGYCWGGQMGYWGQGTQVTVSS” the “polyreactivity (PSR sort gate)” value was “low polyreactivity”.
With “QVQLVESGGGLVQAGGSLRLSCAASGSNFTFNALGWYRQAPGKERELVAAISKSGDRTYADSVKGRFTISRDNAKNTVYLQMNSLKPDDTAVYYCAADFSVSRYDYWGQGTQVTVSS” the “polyreactivity (PSR sort gate)” value was “low polyreactivity”.
With “QVQLVESGGGLVQAGGSLRLSCAASGITFERNGMGWYRQAPGKERELVAAIRSGGSTYYADSVKGRFTISRDNAKNTVYLQMNSLKPEDTAVYYCNAPYGRQGYDYWGQGTQVTVSS” the “polyreactivity (PSR sort gate)” value was “low polyreactivity”.
In the case of “QVQLVESGGGLVQAGGSLRLSCAASGFTFSGNVMGWYRQAPGKERELVAGISRSGSSTSYADSVKGRFTISRDNAKNTVYLQMNSLKPEDTAVYYCNKVKRSYYYVDTDYWGQGTQVTVSS”, the “polyreactivity (PSR sort gate)” value is reported as “high polyreactivity”.
In the case of “QVQLVESGGGLVQAGGSLRLSCAASGSTFVDNAMGWYRQAPGKERELVADITWSGGSTYYADSVKGRFTISRDNAKNTVYLQMNSLKPEDTAVYYCAKVPKSRGYVGGMDYWGQGTQVTVSS”, the “polyreactivity (PSR sort gate)” value is reported as “low polyreactivity”.
With “QVQLVESGGGLDHAGGSLRLSCAASGRTFLGYAMGWYRQAPGKERELVAAISSSGGSTYYADSVKGLFTISRDNAKNTVYLQTNSLKPEDTAVYYCAKRKPATCASGHRFGYWGQGTQVTVSS” the “polyreactivity (PSR sort gate)” value was “high polyreactivity”.
With “QVQLVASGGGLVQAGGSLRLSCAASGFIVSVYAMGWYRQAPGKERELVAVISTSGGRTYYADSVKGRFTISRDNAQNTVYLQMNSLKPEDTAVYYCAADGFQYTLGNYYWGQGTHVTVSS” the “polyreactivity (PSR sort gate)” value was “high polyreactivity”.
In the case of “QVQLVESGGGLVQEGGSLRLSCAASGSIFLQYAMGWYRQAPGKERELVAGISLRGCSTYYADSVKGRFTISRDNAKNTVYVQLNSLKPEDTAVYYCAADVIVTVETHTSGPSFTEYDYWGQGTQVTVSS”, the “polyreactivity (PSR sort gate)” value is reported as “low polyreactivity”.
With “QVQLVESGGGLVQAAGSLRLSCAASGRTFSGYAMGWYRQAPGKERELVAAIRWSGGSTYYADSVKGRFTISRDNAKNTVYLQMNSLKPEDTAVYYCATRDYYYRYGYWGQGTQVTVSS” the “polyreactivity (PSR sort gate)” value was “high polyreactivity”.
With “QVQLVESGGGLVQAGGSLRLSCAASGRTFKYYTMGWYRQAPGKERELVAAISASGGSTYYADSVKGRFTISRDNAKNTVYLQMNSLKPEDTAVYYCAKGANRAIHKQPTRSRLDSWGQGTQVTVSS” the “polyreactivity (PSR sort gate)” value was “high polyreactivity”.
In the case of “QVQLVESGGGLVQAGGSLRLSCAASGFIFRYNPMGRYRHAPGKEREFVAAIDSGGSTYYADSVKGRFTISRDNAKNTVYLQMNSLKPEDTAVYYCNAVHEASYAGVDYWGQGTQVTVSS”, the “polyreactivity (PSR sort gate)” value is reported as “low polyreactivity”.
With “QVQLVESGGGLVQAGGSLRLSCAASGGIFYLNAMGWYREAPGKERELVAAISSGVSTYYADSVKGRFTISRDNAKNTVYLQMNSLKPEDTAVYYCNADYNYPAWVGSWWDYDYWGQGTQVTVSS” the “polyreactivity (PSR sort gate)” value was “low polyreactivity”.
In the case of “QVQLVESGGGLVQAGGSLRLSCAASGLTFPIYAMGWYRQAPGKEREYVAVITTSGGSTYYADSVKGRFTISRDNAKNTVYLQMNSLKPEDTAVYYCNARGIRHYYWGQGTQVTVSS”, the “polyreactivity (PSR sort gate)” value is reported as “high polyreactivity”.
For “QVQLVESGGGLVQAGGSLRLSCAASGFIFIIYAMGWYRQAPGKERELVAGIRWSGGSTYYADSVKGRFTISRDNAKNTVYLQMNSLKPEDTAVYYCIKDRGSLTLYTYDYWGQGTQVTVSS”, the “polyreactivity (PSR sort gate)” value was “low polyreactivity”.
In the case of “QVQLVESGGGLVQAGGSLSLSCAASGRTFGAYAMGWYRQAPGKERELVATITVSGGSTYYADSVKGRFTISRDNAKNTVYLQMNSLKREDTAVYYCAAEWYPYPWGYGYWGQGTQVTVSS”, the “polyreactivity (PSR sort gate)” value is reported as “low polyreactivity”.
With “QDQLVESGGGLVQAGGSLRLSCAASGSIFYDKAMAWYRQAPGKEREFVASITNSGSTNYADSVKGRFTISRDNAKNTVYLQMNSLKAEDTAVYFCAAEVYVDYTGYSYFDYPYDYWGQGTHVTVSS” the “polyreactivity (PSR sort gate)” value was “low polyreactivity”.
With “QVQLVESGGGLVQAGGSLRLSCAASGFTFGYYTMGWYRPEAGKEWELVAAISNSGGRTYYADSVKGRFTISLDYAKNTVYFQMNSLKPEDTAVYYCAKAYRTPGYDSWGQGTQVTVSS” the “polyreactivity (PSR sort gate)” value was “high polyreactivity”.
With “QVQLVESGGGLVQAGGSLRLSCAASGFTFNRYAMGWYRPAPGKERELVAAISRSTATTYYADSVKGRFTISRDNAMNTVYLQMNSLKPEDTAVFYCNSPQRYWPPYGYWGQGTQVTVSS” the “polyreactivity (PSR sort gate)” value was “high polyreactivity”.
In the case of “QVQLVESGGGLVQAGGSLRLSCAASGLIFRLYAMGWYRQAPGKERELVAAISGGGGSTYYADSVKGRFTISRDNAKNTVYLQMNSLKPEDTAVYYCAATYSRGYWWSEYDYWGQGTQVTVSS”, the “polyreactivity (PSR sort gate)” value is reported as “low polyreactivity”.
For “QVQLVESGGGLVQAGGSLRLSCAASGSIFYAYAMGWYRQAPGKEREFVAVISYSGGSTYYADSVKGRFTISRDNAKNTVYLQMYSLKPEDTAVYYCAARYRRPYSYYYWGQGTQVTVSS”, the “polyreactivity (PSR sort gate)” value was “high polyreactivity”.
In the case of “QVQLVESGGVLVQAGGSLRLSCAASGLIFKFYAMGWYRQAPGKERELVARISSSGGSTYYADSVKGRFTTSRDNAKNTVYLQMNSLKPEDTAVSYCAAGAYYVDRYARSSIFSYYYWGQATQVTVSS”, the “polyreactivity (PSR sort gate)” value is reported as “high polyreactivity”.
For “QVQLVESGGGLVQAGGSHRFSCAASGFTVWEYAMGLYRQAPGKERELVAAISRGTSTYYADSVKGRFTISRDNAKNTVYLQMNSLKPEDTAVYYCAAAPSYYPARHGYWGQGSQVTVSS”, the “polyreactivity (PSR sort gate)” value was “low polyreactivity”.
With “QVQLVESGGGLVQAGGSLRLSCAASGSIFQGYAMGWYRQAPGKERELVARITSDDDSTYYADSVKGRFTISRDNAKITVYLQMNSLKPEDTAVYYCNADYYWTSLAMDSWGQGTKVTVSS” the “polyreactivity (PSR sort gate)” value was “low polyreactivity”.
With “QVQLVESGGGLVQAGGSLRLSCAASGRILWWYAMAWYRQAPGKERELVATITYSGGSTYADSVKGRFTISRDNAKNTVYLQMNSLKPVDTAVYYCAARLALYYGKSVYWGQGTQVTVSS” the “polyreactivity (PSR sort gate)” value was “high polyreactivity”.
In the case of “QDQLVESGGGLVQAGGSLRLSCAASGGTFTVYAMGWYRQAPGKERELVATINWSRGSTYYADSVKGRFTISRDNAKNTVYLQMKSLKPEDNAVYYCNAAWQYKSVEYWGQGTQVTVSS”, the “polyreactivity (PSR sort gate)” value is reported as “low polyreactivity”.
In the case of “QVQLVESGGGLVQAGGSLRLSCAASGSTFKAYAMGLYRPAPGKERELVAAITRRGTSTYYADSVKGRFTISRDNAKNTVYLQMNSLKPEDTAVYYCNAKYVSDRSSAVSFDYWGQGTQVTVSS”, the “polyreactivity (PSR sort gate)” value is reported as “low polyreactivity”.
For “QVQLVESGGGLVQAGGSLRLSCAASGRIIGKNAMGWYRQAPGKERELVAAIRYNGGRTYYADSVKGRFTISRDNAKNTVYLQMNSLKPEDTAVYYCATRTYRVDPEFGYWGQGTQVTVSS”, the “polyreactivity (PSR sort gate)” value was “high polyreactivity”.

From the nanobody polyreactivity screen of Harvey et al. (2022)
